{"source": "patent US20200325212A1", "about": "(CITY OF HOPE, published 2020)", "binders": {"B1": {"name": "mLCN2-Fc (bivalent m-Lcn2 fused to human IgG1 Fc) (Fc fusion)", "chain": "QDSTSDLIPAPPLSKVPLQQNFQDNQFHGKWYVVGLAGNRILRDDQHPMNMYATIYELKEDKSYNVTSVISSHKKCEYTIATFVPGSQPGEFTLGNIKSYGDKTSYLVRVVSTDYNQYAVVFFKLAEDNAEFFAITIYGRTKELASELKENFIRFSKSLGLPENHIVFPVPIDQCIDG", "notes": "m-Lcn2 cDNA was subcloned N-terminal to a linker-Fc domain and expressed in insect cells; also called bivalent m-Lcn2-Fc; unmasked m-Lcn2-Fc; not shown: linker between m-Lcn2 and Fc; human IgG1 Fc fragment"}, "B2": {"name": "modified lipocalin2 (mLcn2), monovalent (designed binder)", "chain": "B1 chain", "notes": "Re-engineered human lipocalin 2 used as a CTLA-4 antagonist; also called monovalent mLCN2; monomeric mLCN2"}}, "key": {"[1]": {"molecular_target": "murine CTLA4 on murine T-cells (C57BL/6 splenocytes) (mouse, UniProt P09793 36-223)", "assay": "cell-based or functional assay"}, "[2]": {"molecular_target": "T1, CTLA4-Fc MMP9 (MMP9-cleavable CTLA4-Fc mask; CTLA4-Fc_WT) (human)", "T1 construct": "It was expressed in insect cells; also called CTLA-4-MMP9-Fc; CTLA4-MMP9-Fc", "T1 sequence (chain, as listed by the source limits assumed)": "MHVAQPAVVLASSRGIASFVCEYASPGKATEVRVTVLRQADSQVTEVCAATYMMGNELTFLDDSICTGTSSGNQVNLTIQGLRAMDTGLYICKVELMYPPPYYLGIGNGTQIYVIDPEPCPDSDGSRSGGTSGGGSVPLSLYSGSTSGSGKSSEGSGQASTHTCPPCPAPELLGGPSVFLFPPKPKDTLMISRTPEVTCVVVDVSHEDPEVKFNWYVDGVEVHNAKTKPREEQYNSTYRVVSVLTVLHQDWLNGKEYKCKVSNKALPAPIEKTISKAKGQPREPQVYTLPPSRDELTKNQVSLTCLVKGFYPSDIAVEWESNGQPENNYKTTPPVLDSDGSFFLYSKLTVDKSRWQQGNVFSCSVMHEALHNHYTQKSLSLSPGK", "assay": "SPR, CTLA-4-MMP9-Fc coupled to the sensor chip and titrated with m-Lcn2-Fc; no dissociation observed", "description": "To verify that the m-Lcn2-Fc and CTLA-4-Fc form a 1:1 complex, we used analytical size exclusion chromatography (SEC) (FIG. 3 panel A). A definitive shift to earlier elution volumes was observed, consistent with a molecular mass of 200 kD, as expected. To verify an increase in the apparent affinity due to the energy additivity of bivalent-bivalent interaction, the mask, CTLA-4-MMP9-Fc, was coupled to a CMS sensor chip and titrated with the bivalent m-Lcn2-Fc. A substantial increase in affinity was observed. In fact, no dissociation was observed and thus no calculation could be completed for an apparent dissociation constant (FIG. 3 panel B). […] In an attempt to establish the off-rate, a competition assay was carried out. Specifically, the 1:1 m-Lcn2-Fc|CTLA-4-MMP9-Fc complex was isolated and incubated with 10 fold excess of Alexafluor-labeled CTLA-4-MMP9-Fc. The exchange by size exclusion chromatography was followed by monitoring at […]. After two weeks, less than 5% exchange was observed.\nSurface Plasmon Resonance (SPR). SPR experiments were performed on a GE Biacore T100 instrument at 25° C. Ligands were amine coupled to CMS chips at 300 Rmax. Blank lanes were used as baseline control. Analyte titrations were prepared as serial dilutions in HBS-EP⁺ running buffer (10 mM Hepes pH 7.4, 150 mM NaCl, 3 mM EDTA, 0.05% v/v P20). […]"}, "CTLA4-Fc variant Y52F [3]": {"molecular_target": "CTLA4-Fc variant Y52F (human)", "sequence (chain, as listed by the source Y52F Y52F limits assumed)": "as the sequence (chain, as listed by the source limits assumed) above, with Y52F counted along it", "assay": "calculated from SPR kd, t1/2 = ln(2)/kd", "method": "(§1) Surface Plasmon Resonance (SPR). SPR experiments were performed on a GE Biacore T100 instrument at 25° C. Ligands were amine coupled to CMS chips at 300 Rmax. Blank lanes were used as baseline control. Analyte titrations were prepared as serial dilutions in HBS-EP⁺ running buffer (10 mM Hepes pH 7.4, 150 mM NaCl, 3 mM EDTA, 0.05% v/v P20). Increasing concentrations of analytes were flowed over blank and ligand lanes at 50 μL/min. Regeneration buffer (1 M NaCl, 10 mM glycine pH 2.6) was flowed at 90 μL/min for 10 s. Data analyses were performed using Biacore T100 Evaluation Software, version 1.1.1 (GE Healthcare). Response reported as the difference between blank and peptide lanes.\n(§2) TABLE 3 Kinetics of CTLA4-Fc mask variants, as measured by SPR. Binding kinetics of mLCN2 for each CTLA4-Fc variant was measured by SPR. Half-life time was calculated from equation: t_{1/2} = ln (2)/kd."}, "[4]": {"molecular_target": "T1, CTLA4-Fc MMP9 (MMP9-cleavable CTLA4-Fc …)", "assay": "calculated from SPR kd, t1/2 = ln(2)/kd", "method": "as §1, §2"}, "[5]": {"molecular_target": "T2, CTLA4-Fc variant E31A R33A (human)", "T2 construct": "Whole fusion (CTLA4 extracellular domain, MMP9 linker, IgG1 Fc) with E31A and R33A; also called E31A and R33A CTLA-4", "T2 sequence (chain, as listed by the source E31A R33A E31A R33A limits assumed)": "as the sequence (chain, as listed by the source limits assumed) above, with E31A, R33A counted along it", "assay": "calculated from SPR kd, t1/2 = ln(2)/kd", "method": "as §1, §2"}, "[6]": {"molecular_target": "T3, CTLA4-Fc variant E31S R33E T51H (human)", "T3 construct": "Whole fusion (CTLA4 extracellular domain, MMP9 linker, IgG1 Fc) with E31S, R33E and T51H; also called E31S, R33E, T51H CTLA-4", "T3 sequence (chain, as listed by the source E31S R33E T51H E31S R33E T51H limits assumed)": "as the sequence (chain, as listed by the source limits assumed) above, with E31S, R33E, T51H counted along it", "assay": "calculated from SPR kd, t1/2 = ln(2)/kd", "method": "as §1, §2"}, "CTLA4-Fc variant T51H [7]": {"molecular_target": "T4, CTLA4-Fc variant T51H (human)", "T4 construct": "Whole fusion (CTLA4 extracellular domain, MMP9 linker, IgG1 Fc) with T51H; also called T51H CTLA-4", "T4 sequence (chain, as listed by the source T51H T51H limits assumed)": "as the sequence (chain, as listed by the source limits assumed) above, with T51H counted along it", "assay": "calculated from SPR kd, t1/2 = ln(2)/kd", "method": "as §1, §2"}, "CTLA4-Fc variant Y52F [8]": {"molecular_target": "CTLA4-Fc variant Y52F (human)", "assay": "SPR (Biacore T100), mLCN2 on CTLA4-Fc variant", "method": "as §1, §2"}, "[9]": {"molecular_target": "T1, CTLA4-Fc MMP9 (MMP9-cleavable CTLA4-Fc …)", "assay": "SPR (Biacore T100), mLCN2 on CTLA4-Fc variant", "method": "as §1, §2"}, "[10]": {"molecular_target": "T2, CTLA4-Fc variant E31A R33A", "assay": "SPR (Biacore T100), mLCN2 on CTLA4-Fc variant", "method": "as §1, §2"}, "[11]": {"molecular_target": "T3, CTLA4-Fc variant E31S R33E T51H", "assay": "SPR (Biacore T100), mLCN2 on CTLA4-Fc variant", "method": "as §1, §2"}, "CTLA4-Fc variant T51H [12]": {"molecular_target": "T4, CTLA4-Fc variant T51H", "assay": "SPR (Biacore T100), mLCN2 on CTLA4-Fc variant", "method": "as §1, §2"}, "[13]": {"molecular_target": "T5, CTLA-4-Fc (purchased from R&D systems) (human, UniProt P16410 37-162)", "T5 construct": "Bought reagent; also called human CTLA4; not shown: Fc part and linker of the commercial product are not described", "T5 sequence (looked up)": "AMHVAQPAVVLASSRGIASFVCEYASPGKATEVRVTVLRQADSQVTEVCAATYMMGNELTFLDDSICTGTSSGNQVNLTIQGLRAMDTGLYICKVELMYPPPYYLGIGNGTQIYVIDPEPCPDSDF", "assay": "calculated from the koff of the monovalent m-Lcn2 : CTLA-4 interaction"}, "[14]": {"molecular_target": "T5, CTLA-4-Fc (purchased from R&D systems)", "assay": "SPR presumed; method not given; monovalent m-Lcn2 to CTLA-4"}}}
{"binder": "B1", "values": [{"measurement": "induction of IFN-γ production (Elispot)", "setting": "[1]", "result": 10, "unit": "fold"}, {"measurement": "Kd", "setting": "[2]", "result": "≤ 0.2", "unit": "nM"}]}
{"binder": "B2", "values": [{"measurement": "Calculated t1/2", "setting": "CTLA4-Fc variant Y52F [3]", "result": 53.7, "unit": "min"}, {"measurement": "Calculated t1/2", "setting": "[4]", "result": 57.8, "unit": "min"}, {"measurement": "Calculated t1/2", "setting": "[5]", "result": 11.6, "unit": "min"}, {"measurement": "Calculated t1/2", "setting": "[6]", "result": 0.467, "unit": "min"}, {"measurement": "Calculated t1/2", "setting": "CTLA4-Fc variant T51H [7]", "result": 52.5, "unit": "min"}, {"measurement": "Kd", "setting": "CTLA4-Fc variant Y52F [8]", "result": 6.14, "unit": "nM"}, {"measurement": "koff", "setting": "CTLA4-Fc variant Y52F [8]", "result": 0.000215, "unit": "s⁻¹"}, {"measurement": "kon", "setting": "CTLA4-Fc variant Y52F [8]", "result": 35100, "unit": "M⁻¹ s⁻¹"}, {"measurement": "Kd", "setting": "[9]", "result": 5.52, "unit": "nM"}, {"measurement": "koff", "setting": "[9]", "result": 0.000201, "unit": "s⁻¹"}, {"measurement": "kon", "setting": "[9]", "result": 36400, "unit": "M⁻¹ s⁻¹"}, {"measurement": "Kd", "setting": "[10]", "result": 100, "unit": "nM"}, {"measurement": "koff", "setting": "[10]", "result": 0.0011, "unit": "s⁻¹"}, {"measurement": "kon", "setting": "[10]", "result": 11000, "unit": "M⁻¹ s⁻¹"}, {"measurement": "Kd", "setting": "[11]", "result": 5600, "unit": "nM"}, {"measurement": "koff", "setting": "[11]", "result": 0.025, "unit": "s⁻¹"}, {"measurement": "kon", "setting": "[11]", "result": 4430, "unit": "M⁻¹ s⁻¹"}, {"measurement": "Kd", "setting": "CTLA4-Fc variant T51H [12]", "result": 9.07, "unit": "nM"}, {"measurement": "koff", "setting": "CTLA4-Fc variant T51H [12]", "result": 0.00022, "unit": "s⁻¹"}, {"measurement": "kon", "setting": "CTLA4-Fc variant T51H [12]", "result": 24200, "unit": "M⁻¹ s⁻¹"}, {"measurement": "t1/2 (dissociation half-life, 0.693/KOFF)", "setting": "[13]", "result": 22, "unit": "min"}, {"measurement": "koff", "setting": "[14]", "result": 0.00051, "unit": "s⁻¹"}]}
